Patent US20220411491A1 (Hoffmann-La Roche, published 2022)

Molecular target: human GPRC5D (human, UniProt Q9NZD1 1-345)
Experiment: cell-based or functional assay

Sequence of human GPRC5D (Q9NZD1 whole entry): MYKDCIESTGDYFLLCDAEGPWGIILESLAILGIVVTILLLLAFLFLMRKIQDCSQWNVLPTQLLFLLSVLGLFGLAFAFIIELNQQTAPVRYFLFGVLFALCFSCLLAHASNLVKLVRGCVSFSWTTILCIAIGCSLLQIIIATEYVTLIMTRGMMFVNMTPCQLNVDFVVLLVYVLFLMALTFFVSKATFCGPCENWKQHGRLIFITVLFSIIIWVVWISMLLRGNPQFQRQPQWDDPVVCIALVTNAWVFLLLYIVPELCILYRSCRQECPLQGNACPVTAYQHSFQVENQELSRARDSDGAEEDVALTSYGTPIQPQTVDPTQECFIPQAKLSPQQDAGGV

Binder	CAR-J2 EC50
P1AE5739 (antibody, V domains shown) VH: EVQLVESGGGVVQPGRSLRLSCAASGFSFSNYGMAWVRQAPGKGLEWVASISTGGGNTYYRDSVKGRFTISRDNAKNTLYLQMNSLRAEDTAVYYCTRHDRGGLYWGQGTMVTVSS VL: DIVMTQSPLSLPVTPGEPASISCRSSKSLLHSNGITYVYWYLQKPGQSPQVLIYRMSNLASGVPDRFSGSGSGTDFTLKISRVEAEDVGVYHCGQLLENPYTFGQGTKLEIK	23.5 ng/mL
P1AE5742 (antibody, V domains shown) VH: EVQLVESGGGVVQPGRSLRLSCAASGFSFSNYGMAWVRQAPGKGLEWVASISTGGGNTYYRDSVKGRFTISRDNAKNTLYLQMNSLRAEDTAVYYCTRHDRGGLYWGQGTMVTVSS VL: DIVMTQSPDSLAVSLGERATINCKSSKSLLHSNGITYVYWYQQKPGQPPKLLIYRMSNLASGVPDRFSGSGSGTDFTLTISSLQAEDVAVYHCGQLLENPYTFGQGTKLEIK	61.9 ng/mL
P1AE5744 (antibody, V domains shown) VH: QVQLVESGGGVVQPGRSLRLSCAASGFSFSNYGMAWVRQAPGKGLEWVASISTGGGNTYYADSVKGRFTISRDNSKNTLYLQMNSLRAEDTAVYYCTRHDRGGLYWGQGTMVTVSS VL: DIVMTQSPLSLPVTPGEPASISCRSSKSLLHSNGITYVYWYLQKPGQSPQVLIYRMSNLASGVPDRFSGSGSGTDFTLKISRVEAEDVGVYHCGQLLENPYTFGQGTKLEIK	3.63 ng/mL
P1AE5760 (antibody, V domains shown) VH: EVQLVESGGGLVQPGGSLRLSCAASGFSFSNYGMAWVRQAPGKGLEWVASISTGGGNTYYADSVKGRFTISRDNAKNTLYLQMNSLRAEDTAVYYCTRHDRGGLYWGQGTMVTVSS VL: DIVMTQSPLSLPVTPGEPASISCRSSKSLLHSNGITYVYWYLQKPGQSPQVLIYRMSNLASGVPDRFSGSGSGTDFTLKISRVEAEDVGVYHCGQLLENPYTFGQGTKLEIK	190 ng/mL
P1AE5757 (antibody, V domains shown) VH: EVQLVESGGGLVQPGGSLRLSCAASGFSFSNYGMAWVRQAPGKGLEWVASISTGGGNTYYRDSVKGRFTISRDNAKNTLYLQMNSLRAEDTAVYYCTRHDRGGLYWGQGTMVTVSS VL: DIVMTQSPLSLPVTPGEPASISCRSSKSLLHSNGITYVYWYLQKPGQSPQLLIYRMSNRASGVPDRFSGSGSGTDFTLKISRVEAEDVGVYHCGQLLENPYTFGQGTKLEIK	145 ng/mL
P1AE5752 (antibody, V domains shown) VH: EVQLVESGGGVVQPGRSLRLSCAASGFSFSNYGMAWVRQAPGKGLEWVASISTGGGNTYYADSVKGRFTISRDNAKNTLYLQMNSLRAEDTAVYYCTRHDRGGLYWGQGTMVTVSS VL: DIVMTQSPLSLPVTPGEPASISCRSSKSLLHSNGITYVYWYLQKPGQSPQLLIYRMSNRASGVPDRFSGSGSGTDFTLKISRVEAEDVGVYHCGQLLENPYTFGQGTKLEIK	509 ng/mL
P1AE5746 (antibody, V domains shown) VH: QVQLVESGGGVVQPGRSLRLSCAASGFSFSNYGMAWVRQAPGKGLEWVASISTGGGNTYYADSVKGRFTISRDNSKNTLYLQMNSLRAEDTAVYYCTRHDRGGLYWGQGTMVTVSS VL: DIVMTQSPLSLPVTPGEPASISCRSSKSLLHSNGITYVYWYLQKPGQSPQLLIYRMSNRASGVPDRFSGSGSGTDFTLKISRVEAEDVGVYHCGQLLENPYTFGQGTKLEIK	514 ng/mL
P1AE5751 (antibody, V domains shown) VH: EVQLVESGGGVVQPGRSLRLSCAASGFSFSNYGMAWVRQAPGKGLEWVASISTGGGNTYYADSVKGRFTISRDNAKNTLYLQMNSLRAEDTAVYYCTRHDRGGLYWGQGTMVTVSS VL: DIVMTQSPLSLPVTPGEPASISCRSSKSLLHSNGITYVYWYLQKPGKSPQVLIYRMSNLASGVPDRFSGSGSGTDFTLKISRVEAEDVGVYHCGQLLENPYTFGQGTKLEIK	6.44 ng/mL
P1AE5740 (antibody, V domains shown) VH: EVQLVESGGGVVQPGRSLRLSCAASGFSFSNYGMAWVRQAPGKGLEWVASISTGGGNTYYRDSVKGRFTISRDNAKNTLYLQMNSLRAEDTAVYYCTRHDRGGLYWGQGTMVTVSS VL: DIVMTQSPLSLPVTPGEPASISCRSSKSLLHSNGITYVYWYLQKPGKSPQVLIYRMSNLASGVPDRFSGSGSGTDFTLKISRVEAEDVGVYHCGQLLENPYTFGQGTKLEIK	8.96 ng/mL
P1AE5753 (antibody, V domains shown) VH: EVQLVESGGGVVQPGRSLRLSCAASGFSFSNYGMAWVRQAPGKGLEWVASISTGGGNTYYADSVKGRFTISRDNAKNTLYLQMNSLRAEDTAVYYCTRHDRGGLYWGQGTMVTVSS VL: DIVMTQSPDSLAVSLGERATINCKSSKSLLHSNGITYVYWYQQKPGQPPKLLIYRMSNLASGVPDRFSGSGSGTDFTLTISSLQAEDVAVYHCGQLLENPYTFGQGTKLEIK	30 ng/mL
P1AE5736 (antibody, V domains shown) VH: QVQLVESGGGVVQPGRSLRLSCAASGFSFSNYGMAWVRQAPGKGLEWVASISTGGGNTYYRDSVKGRFTISRDNSKNTLYLQMNSLRAEDTAVYYCTRHDRGGLYWGQGTMVTVSS VL: DIVMTQSPLSLPVTPGEPASISCRSSKSLLHSNGITYVYWYLQKPGQSPQLLIYRMSNRASGVPDRFSGSGSGTDFTLKISRVEAEDVGVYHCGQLLENPYTFGQGTKLEIK	1.38 ng/mL
P1AE5741 (antibody, V domains shown) VH: EVQLVESGGGVVQPGRSLRLSCAASGFSFSNYGMAWVRQAPGKGLEWVASISTGGGNTYYRDSVKGRFTISRDNAKNTLYLQMNSLRAEDTAVYYCTRHDRGGLYWGQGTMVTVSS VL: DIVMTQSPLSLPVTPGEPASISCRSSKSLLHSNGITYVYWYLQKPGQSPQLLIYRMSNRASGVPDRFSGSGSGTDFTLKISRVEAEDVGVYHCGQLLENPYTFGQGTKLEIK	1.4 ng/mL
P1AE5737 (antibody, V domains shown) VH: QVQLVESGGGVVQPGRSLRLSCAASGFSFSNYGMAWVRQAPGKGLEWVASISTGGGNTYYRDSVKGRFTISRDNSKNTLYLQMNSLRAEDTAVYYCTRHDRGGLYWGQGTMVTVSS VL: DIVMTQSPDSLAVSLGERATINCKSSKSLLHSNGITYVYWYQQKPGQPPKLLIYRMSNLASGVPDRFSGSGSGTDFTLTISSLQAEDVAVYHCGQLLENPYTFGQGTKLEIK	2.95 ng/mL
P1AE5735 (antibody, V domains shown) VH: QVQLVESGGGVVQPGRSLRLSCAASGFSFSNYGMAWVRQAPGKGLEWVASISTGGGNTYYRDSVKGRFTISRDNSKNTLYLQMNSLRAEDTAVYYCTRHDRGGLYWGQGTMVTVSS VL: DIVMTQSPLSLPVTPGEPASISCRSSKSLLHSNGITYVYWYLQKPGKSPQVLIYRMSNLASGVPDRFSGSGSGTDFTLKISRVEAEDVGVYHCGQLLENPYTFGQGTKLEIK	82.1 ng/mL
P1AE5750 (antibody, V domains shown) VH: EVQLVESGGGVVQPGRSLRLSCAASGFSFSNYGMAWVRQAPGKGLEWVASISTGGGNTYYADSVKGRFTISRDNAKNTLYLQMNSLRAEDTAVYYCTRHDRGGLYWGQGTMVTVSS VL: DIVMTQSPLSLPVTPGEPASISCRSSKSLLHSNGITYVYWYLQKPGQSPQVLIYRMSNLASGVPDRFSGSGSGTDFTLKISRVEAEDVGVYHCGQLLENPYTFGQGTKLEIK	20.6 ng/mL
P1AE5755 (antibody, V domains shown) VH: EVQLVESGGGLVQPGGSLRLSCAASGFSFSNYGMAWVRQAPGKGLEWVASISTGGGNTYYRDSVKGRFTISRDNAKNTLYLQMNSLRAEDTAVYYCTRHDRGGLYWGQGTMVTVSS VL: DIVMTQSPLSLPVTPGEPASISCRSSKSLLHSNGITYVYWYLQKPGQSPQVLIYRMSNLASGVPDRFSGSGSGTDFTLKISRVEAEDVGVYHCGQLLENPYTFGQGTKLEIK	152 ng/mL
P1AE5756 (antibody, V domains shown) VH: EVQLVESGGGLVQPGGSLRLSCAASGFSFSNYGMAWVRQAPGKGLEWVASISTGGGNTYYRDSVKGRFTISRDNAKNTLYLQMNSLRAEDTAVYYCTRHDRGGLYWGQGTMVTVSS VL: DIVMTQSPLSLPVTPGEPASISCRSSKSLLHSNGITYVYWYLQKPGKSPQVLIYRMSNLASGVPDRFSGSGSGTDFTLKISRVEAEDVGVYHCGQLLENPYTFGQGTKLEIK	170 ng/mL
P1AE5745 (antibody, V domains shown) VH: QVQLVESGGGVVQPGRSLRLSCAASGFSFSNYGMAWVRQAPGKGLEWVASISTGGGNTYYADSVKGRFTISRDNSKNTLYLQMNSLRAEDTAVYYCTRHDRGGLYWGQGTMVTVSS VL: DIVMTQSPLSLPVTPGEPASISCRSSKSLLHSNGITYVYWYLQKPGKSPQVLIYRMSNLASGVPDRFSGSGSGTDFTLKISRVEAEDVGVYHCGQLLENPYTFGQGTKLEIK	1.62 ng/mL
P1AE5747 (antibody, V domains shown) VH: QVQLVESGGGVVQPGRSLRLSCAASGFSFSNYGMAWVRQAPGKGLEWVASISTGGGNTYYADSVKGRFTISRDNSKNTLYLQMNSLRAEDTAVYYCTRHDRGGLYWGQGTMVTVSS VL: DIVMTQSPDSLAVSLGERATINCKSSKSLLHSNGITYVYWYQQKPGQPPKLLIYRMSNLASGVPDRFSGSGSGTDFTLTISSLQAEDVAVYHCGQLLENPYTFGQGTKLEIK	183 ng/mL
P1AE5734 (antibody, V domains shown) VH: QVQLVESGGGVVQPGRSLRLSCAASGFSFSNYGMAWVRQAPGKGLEWVASISTGGGNTYYRDSVKGRFTISRDNSKNTLYLQMNSLRAEDTAVYYCTRHDRGGLYWGQGTMVTVSS VL: DIVMTQSPLSLPVTPGEPASISCRSSKSLLHSNGITYVYWYLQKPGQSPQVLIYRMSNLASGVPDRFSGSGSGTDFTLKISRVEAEDVGVYHCGQLLENPYTFGQGTKLEIK	41.5 ng/mL
P1AE5762 (antibody, V domains shown) VH: EVQLVESGGGLVQPGGSLRLSCAASGFSFSNYGMAWVRQAPGKGLEWVASISTGGGNTYYADSVKGRFTISRDNAKNTLYLQMNSLRAEDTAVYYCTRHDRGGLYWGQGTMVTVSS VL: DIVMTQSPLSLPVTPGEPASISCRSSKSLLHSNGITYVYWYLQKPGQSPQLLIYRMSNRASGVPDRFSGSGSGTDFTLKISRVEAEDVGVYHCGQLLENPYTFGQGTKLEIK	84.2 ng/mL
P1AE5761 (antibody, V domains shown) VH: EVQLVESGGGLVQPGGSLRLSCAASGFSFSNYGMAWVRQAPGKGLEWVASISTGGGNTYYADSVKGRFTISRDNAKNTLYLQMNSLRAEDTAVYYCTRHDRGGLYWGQGTMVTVSS VL: DIVMTQSPLSLPVTPGEPASISCRSSKSLLHSNGITYVYWYLQKPGKSPQVLIYRMSNLASGVPDRFSGSGSGTDFTLKISRVEAEDVGVYHCGQLLENPYTFGQGTKLEIK	74.6 ng/mL
